This is an account of results in paper PMC10899789, “Flexible structural arrangement and DNA-binding properties of protein p6 from Bacillus subtillis phage φ29” (Nucleic Acids Research, 2024).

This series deals with the molecule itself. Nature of the series: AUC; sedimentation velocity, protein alone, 48 000 rpm, 20°C, 50 mM Tris-HCl pH 7.5, 10 mM MgCl2, 50 mM NaCl; 2.5-320 μM protein; isotherms of weight-average sedimentation coefficients fitted to a monomer-dimer self-association model (SEDPHAT); dimer to monomers.

B1: Full-length protein p6 (wt) of Bacillus subtilis bacteriophage φ29 (natural protein, UniProt P03685 1-104, looked up)
chain: MAKMMQREITKTTVNVAKMVMVDGEVQVEQLPSETFVGNLTMEQAQWRMKRKYKGEPVQVVSVEPNTEVYELPVEKFLEVATVRVEKDEDQEEQTEAPEEQVAE
notes: numbers count on: the traditional numbering of φ29 p6, where the second residue (Ala) is position 1 because the initial Met is removed in vivo; about 11.8 kDa as printed; also called wt p6; φ29 protein p6; source: produced and purified as previously described (23)
Usually Kd stands for the concentration at which binding is half-saturated. High values mean weaker binding, low ones tighter binding. Regarding B1, the Kd was 11.4 µM.

B2: p6CΔ20 (residues 1–83), C-terminal deletion mutant of φ29 protein p6 (domain or fragment)
chain: AKMMQREITKTTVNVAKMVMVDGEVQVEQLPSETFVGNLTMEQAQWRMKRKYKGEPVQVVSVEPNTEVYELPVEKFLEVATVR
For B2, the Kd was 47 µM.
